This series can be described thus: label from the status in PepcDB records.

Consider “VILKKIFIALIALVVIINTVSFTAVSASTPTWLEQTMNSNEPFIKEIEKETGKTRANITQTDLEAITALRVTGASDIPTNIDMLTHLTTLEVKSGTLSSVSNSVGNLKELKILVLNDNNLSTFPTIVFQLPKLEELQVSGGTIEEIPATITNMASHLKFLGILNNHLVKVPDAIFTTNWTNATGGDLDLMAAGNQIVTNIPANYISQFNNGNNLLEFYDNNYQKQDQLTTTPGYTIDVPVGTDFNQLTPDKTKLALTSGRTLLAQHEFEYYDDGSSSLIHNGVAAAPGQATIFIKSKFSTQSNKFARTQVTVNIIALNGGPITVKHEDTKGQELAPPVILNGKDGDPYTTTQKTFPGYTLVATPANQNGTFTMNPATVNYVYSANDYKLTSTFKDAQGQELKAPVVDTKDYHIQDNYTTTAATIPGYSLVSTPANQNGTFGAGNVTVNYVYKKDDYTLTSTYKDTNGQELKAPVVDATTYHYQDTYTTTAAVFPGYTLVATPTNATGTFGSSNITVNYVYQANGYQLTSTFKDQQGKTIAPDDVDAKTYHVNDPYTTTAKTIPGYTLVTTPANNQGNFGTSDITVDYVYKAEDYTLTSTYKDAQGKELKQPVVDSKKYHIQDNYSTSAAAIPGYTLVATPANETGTFHTSDVTVNYVYKLTDLKLTSTYKDAQGTELKAPVVDSKTYHIQDNYATTAAVIPGYTLVATPANQSGTFGSTDIQVNYVYQAVAYKLTSTYKDQQGNDLALPKVDTKTYHIQDGYTTSDIAIPGYTLVAAPTNQTGTFGASDVTVNYVYKANDYTLTSTYKDAQGKELKTPVIDSQKYHINDTYTTTGATIPGYTLVAAPANQSGTFGAANVTVNYVYKADDYTLTSTYKDANGKELKAPVVDSKTYHTKDNYSTSAATIPGYTLVAVPANQTGTFNTSNVTVNYVYKANEYTLTSTFKNVQGTELKPAIVKKGFIIKDGYATSGVTIPGYTLVATPSNKKGTFGASNVTVNYVYKANGYALITTYKDTQGKDLKPLAIDTKIYNINDPYTATALNIPGYTLTTTPANEKGVFGASDETVNYVYKANDYTLTTTYKDANGKELQAPKVDAKTYHIQDTYKTTAAVIPGYTLVATPKNDQGAFGANNVTVNYVYQTNDYTLTSTFKDAQGNELKAADVDAQKYHIHDTYTSKAAVIPGYTLEKTPTNETGTFNASDIQVNYVYKANDYQLTSTFKDQQGNEIALPTVDAKTYHIHDAYTTKARLIPGYSLVAAPKNQIGAFGTSDVTVNYVYKKDAIIKPITPAKPTILTIKTPASKVIKTKVVKQTLPKTGDDDAGLLNLLRLIGLVLILGVFLAVGSKKLR”, for which the protein production result was “failed”. Next, “VLKQGYMMKKGHRRKNWTERWFVLKPNIISYYVSEDLKDKKGDILLDENCCVESLPDKDGKKCLFLVKCFDKTFEISASDKKKKQEWIQAIHSTIHLLKLGS”: “not failed”; “VLMDEGAVLTLAADLSSATLDISKQWSNVFNILRENDFEPKFLCEVKLAFKCDGEIKTFSDLQSLRKFASQKSSMKELLKDVLPQKE”: “not failed”. Next, “VLYYKDFKIGLGKNQKENIKLLQDARANDLWMHVRNIPGSHLIVFCQKNAPKDDVIMELAKMLIKMQKDAFNSYEIDYTQRKFVKIIKGANVIYSKYRTISLKDT”: “failed”. The same measure for “VMVFISSSLNSFRSEKRYSRSLTIAEFKCKLELVVGSPASCMELELYGADDKFYSKLDQEDALLGSYPVDDGCSIHVIDHSG”: “not failed”; for “VNEIVVNPNATLDWQLALRQAAGKTDLARDMLQMLLDFLPEVRNKVEEQLVGENPEGLVDLIHKLHGSCGYSGVPRMKNLCQLIEQQLRSGTKEEDLEPELLELLDEMDNVAREASKILG”: “not failed”; for “VNELLHLAPNVWPRNTTRDEVGVVCIAGIPLTQLAQEYGTPLFVIDEDDFRSRCRETAAAFGSGANVHYAAKAFLCSEVARWISEEGLCLDVCTGGELAVALHASFPPERITLHGNNKSVSELTAAVKAGVGHIVVDSMTEIERLDAIAGEAGIVQDVLVRLTVGVEAHTHEFISTAHEDQKFGLSVASGAAMAAVRRVFATDHLRLVGLHSHIGSQIFDVDGFELAAHRVIGLLRDVVGEFGPEKTAQIATVDLGGGLGISYLPSDDPPPIAELAAKLGTIVSDESTAVGLPTPKLVVEPGRAIAGPGTITLYEVGTVKDVDVSATAHRRYVSVDGGMSDNIRTALYGAQYDVRLVSRVSDAPPVPARLVGKHCESGDIIVRDTWVPDDIRPGDLVAVAATGAYCYSLSSRYNMVGRPAVVAVHAGNARLVLRRETVDDLLSLEVR”: “not failed”. “VNFEVKDQTLMMELVPERLRGETATFDIEADGKVYVEKGRRVTARHIRQLEKDGVNFIEVPVEYIVGKVSAKDYVNEATGELIITANQEISLEALANLSQAG”: the protein production entry is “not failed”. For the sequence “VNNTKVTNSEESLSVVDDFVKSVWPTAKQAASLIGLDPKLLVAQAALETGWGRFVTRDADGSSSNNLFNIKTGSHSEVESIQVKTTEYIADTPIKINASFRKYPSIEHSFHDYVSLIKGSERYQMALANAENPEIFVSELNKAGYATDPNYSNKILSIYHGDE”, the protein production entry was “failed”. The same measure for “VQPLATQCFQLSNMFNPQTEEEVGWDTEIKDDVIEECNKHGGVIHIYVDKNSAQGNVYVKCPSIAAAIAAVNALHGRWFAGKMITAAYVPLPTYHNLFPDSMTATQLLVPSRR”: “not failed”; for “VRQKGIDIIFMLDISNSMLARDTAPDRLTHAKTELLQISRRLGDGRKALLLFAGTPVVQCPLTDDEEDFEILLDMAAPELITTQGTDYRRAFDAALKLTNSGGELSSNETVLVLASDGEDHGNDLGDIATAMKTRGVHLHVIGVGGVQPVPIPMQGGPKRDQQGKIVLTSFKPEPLASLIKTAKGKFYYSRPDAPVHDAVADDIAAEAAEARW”: “failed”; for “VRVLSYDKEKLNWLYKDPQGLVQGPFSLTQLKAWSDAEYFTKQFRVWMTGESMESAVLLTDVLRL”: “not failed”.

As to “VTVTDDYLANNVDYASGFKGPLPMPPSKHIAIVACMDARLDVYRMLGIKEGEAHVIRNAGCVVTDDVIRSLAISQRLLGTREIILLHHTDCGMLTFTDDDFKRAIQDETGIRPTWSPESYPDAVEDVRQSLRRIEVNPFVTKHTSLRGFVFDVATGKLNEVTP”, the protein production result is “not failed”. The same measure for “VYTLMTTRSHDQYNTTLYGLDDRYRGVFGQRRVLFMNEQDIQEAGFQADQWVDIESIYSDGLKRIVRSFKIVPYNIPRGSMAAYYPETNPLVALSSHDKYAKIPASKSIPVILHPGQAPEHFNLAAPVDPEHANG”: “failed”. As for “YATGNKKNISGSVEKITELGMNKDQITNPLEAIRGRVPGLTIQKGTNGPAALDAVRLRGTTSLTSGNDPLIIVDGVFGDLSMLTSIYPTDIESFTILKDASETAQYGSRGASGVIEITTKKGIRG”, the protein production result is “failed”. Next, “YAYSASLRVRQLGKPFMDEFSRRTNTTVSLTCRDRLSMIHVDSSRPPEVASLRMEPGLRLPLATSAAGRAYLAATPKIERDHLLGEVAKKLGDEWPALEKSLEDSFREYEEFGFCLSLGEWDRNVNGAGVPLRLADGSIMALTCGAPSFQLSSEKLESSLAHQLVMLARDLESLGV”: “failed”. Next, “YCEFLNNELRAHASDLLPTAPVPTMMLDRAWDEATLHNITQLIYDVRKDDALFRREISKPGAFDLMRKNYWDRREYSAVTLVGNETCNLAPLAELGFQIEVSQ”: “failed”. Next, “YCKTIPMPDLAYSEISVIGKLIRALPEPCALHLANSSTVRYAQLFTVPPQVEICCNRGVNGIEGSLSTAIGYAAASSKLNFIIIGDLSFFYDMNALWNQNYGANIRILLLNNEGGEIFHTLPGMDKSSRSREFITAEHYTTAKGWAEERGFIYMKVTGEEELEEAMQPFTSPETRMQPMLLEVFTDKEKD”: “failed”; “YCKTIPMPDLAYSEISVIGKLIRALPEPCALHLANSSTVRYAQLFTVPPQVEICCNRGVNGIEGSLSTAIGYAAASSKLNFIIIGDLSFFYDMNALWNQNYGANIRILLLNNEGGEIFHTLPGMDKSSRSREFITAEHYTTAKGWAEERGFIYMKVTGEEELEEAMQPFTSPETRMQPMLLEVFTDKEKDTTLLREYYHGLKNKNE”: “failed”. As for “YDASPAYYLYTSGSTGTPKCVVLNNRATAHVLQETIDFWGINDKDIHLAATPFHHDMSIFDLMAPLSVGGTLVVPTLEEAKSAVAWAELIERYQVSIWCTVPAMVDMLLTSAEPSQLQSIRLINQGGDYVKPSVVQKLREILPNTRLISIGGPTETTIWSIWHEITSEDI”, the protein production entry is “failed”.

With “YISAVQAGDTESFAPLVERYSDMLYALLCRLLQDEEDAADLLQDTFVKAFRHIGRFDGRSSFSTWIYRIAYNEAIDHLRRRKAYVTDRVEELPDVPDEDLEPSGEDPELLQQALDSLPAADKALLLMFYSDDLSVRDIAEVTGMSESNVKVKLHRLRTKLYKMMR”, the protein production result is “failed”. As for “YLASDGKTIIYVGRNNLQNEELTFKMARKEELWFHAKDIPGSHVVISGNLDPSDAVKTDAAELAAYFSQGRLSNLVQVDMIEVKKLNK”, the protein production result is reported as “failed”.

With “YNPWRNPQNALERRNIVLRLMLEHKMIGDELYQLLSQRPLGVQKKGQISRKYPAFIQTLQADLRRKLGEHKISSLLGA”, the protein production result is “failed”.

The values are drawn from a protein production outcome set (Wang et al. 2014).
